Laboratory results from article PMC3518043.

Biological target: Histone H3 N-terminal peptide trimethylated at lysine-4 (celluspot peptide #1)
Assay: peptide or protein array

GST-tagged CHD5 PHD1 finger (338-393), sequence (Q8TDI0 338-393): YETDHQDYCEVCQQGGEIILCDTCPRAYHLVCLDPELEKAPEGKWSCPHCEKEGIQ
GST-tagged CHD5 PHD2 finger (413-468), sequence (Q8TDI0 413-468): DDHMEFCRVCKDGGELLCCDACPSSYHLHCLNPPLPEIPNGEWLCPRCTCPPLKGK

decrease in signal against unmodified H3	Substance
> 90%	GST-tagged CHD5 PHD1 finger (338-393) (from UniProt Q8TDI0 338-393) (domain or fragment)
> 90%	GST-tagged CHD5 PHD2 finger (413-468) (from UniProt Q8TDI0 413-468) (domain or fragment)
